Test results: patent US20190352413A1 (KYMAB, published 2019)
Each block holds one binder with its values, some of them ahead of it.

Key:
Human OPG-Fc [1] = target: T1, Human OPG-Fc (human); assay: HTRF competition, purified antibody titrated from 120 nM against 4 nM OPG-Fc and 16 nM TRAIL-Flag; remaining specific binding of TRAIL
T1 construct: also called hOPG-Fc; human OPG (in-house)

Rat OPG-Fc [2] = target: T2, Rat OPG-Fc (rat); assay: SPR (ProteOn XPR36), antibody captured on anti-mouse IgG, OPG-Fc as analyte, 25 C, 1:1 model; apparent affinity
T2 construct: The entry begins with a signal peptide ('usually cleaved upon expression'); also called rat OPG (in-house)
T2 sequence (chain, as listed by the source limits assumed): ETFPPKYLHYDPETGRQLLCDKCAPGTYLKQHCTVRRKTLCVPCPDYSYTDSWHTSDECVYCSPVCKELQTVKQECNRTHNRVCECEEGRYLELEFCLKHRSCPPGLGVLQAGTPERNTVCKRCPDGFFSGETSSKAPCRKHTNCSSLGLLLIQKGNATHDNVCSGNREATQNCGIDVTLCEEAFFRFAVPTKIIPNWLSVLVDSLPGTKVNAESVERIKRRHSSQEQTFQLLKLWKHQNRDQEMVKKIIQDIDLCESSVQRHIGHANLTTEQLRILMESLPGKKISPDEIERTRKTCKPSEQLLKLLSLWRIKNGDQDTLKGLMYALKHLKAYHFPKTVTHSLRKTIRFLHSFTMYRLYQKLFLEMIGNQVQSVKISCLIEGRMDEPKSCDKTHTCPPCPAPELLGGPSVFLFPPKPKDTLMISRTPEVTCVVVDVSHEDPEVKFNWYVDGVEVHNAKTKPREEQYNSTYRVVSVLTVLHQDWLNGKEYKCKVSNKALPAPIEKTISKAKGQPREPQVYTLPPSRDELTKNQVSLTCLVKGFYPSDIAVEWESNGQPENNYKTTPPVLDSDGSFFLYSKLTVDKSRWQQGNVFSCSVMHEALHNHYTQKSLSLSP

Cyno OPG-Fc [3] = target: T3, Cyno OPG-Fc (cynomolgus); assay: as above
T3 construct: The entry begins with a signal peptide ('usually cleaved upon expression'); also called cyno OPG (in-house)
T3 sequence (chain, as listed by the source limits assumed): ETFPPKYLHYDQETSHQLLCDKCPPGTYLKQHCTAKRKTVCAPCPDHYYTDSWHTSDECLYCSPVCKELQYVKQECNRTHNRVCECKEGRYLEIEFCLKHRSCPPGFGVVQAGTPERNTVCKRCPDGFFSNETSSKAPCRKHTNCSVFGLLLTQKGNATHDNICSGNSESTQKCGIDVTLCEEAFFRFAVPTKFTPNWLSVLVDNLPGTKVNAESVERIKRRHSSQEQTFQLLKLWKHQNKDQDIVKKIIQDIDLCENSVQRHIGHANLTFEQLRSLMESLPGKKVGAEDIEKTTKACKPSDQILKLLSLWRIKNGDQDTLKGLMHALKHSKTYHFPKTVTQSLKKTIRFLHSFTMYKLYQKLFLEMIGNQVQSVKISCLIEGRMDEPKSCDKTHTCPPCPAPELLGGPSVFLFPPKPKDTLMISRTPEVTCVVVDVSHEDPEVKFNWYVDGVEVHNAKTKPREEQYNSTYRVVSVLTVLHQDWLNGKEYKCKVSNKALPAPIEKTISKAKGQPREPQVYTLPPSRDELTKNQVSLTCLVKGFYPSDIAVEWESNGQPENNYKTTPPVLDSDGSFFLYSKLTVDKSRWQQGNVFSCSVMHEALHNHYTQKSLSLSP

Human OPG-Fc [4] = target: T1, Human OPG-Fc; assay: as above
Rat OPG-Fc [5] = target: T2, Rat OPG-Fc; assay: SPR (ProteOn XPR36), antibody captured on anti-mouse IgG, OPG-Fc as analyte, 25 C, 1:1 model
Description: (§1) Affinity of secreted antibodies was assessed by testing hybridoma supernatants by Label-free surface plasmon resonance (SPR). This analysis was carried out on the ProteOn XPR36 (BioRad) array SPR machine. An anti-mouse IgG capture surface was created on a GLC biosensor chip using amine coupling of an anti-mouse IgG from GE Healthcare. Test antibodies were captured on this surface and human, rat and cyno OPG (in-house) was used as the analyte at 256 nM, 64 nM, 16 nM, 4 nM and 1 nM for Ky3 (15F11), Ky4 (16G05), 5A06, 25F06, 15B08 and 10B07 and at a single concentration of 100 nM for Ky1 (6D07) and Ky2 (8C10). The assay was carried out at 25° C. using HBS-EP (Teknova H8022). Buffer alone was used to reference the binding sensorgrams. The data was analysed using the 1:1 model inherent to the ProteOn XPR36 analysis software.

Cyno OPG-Fc [6] = target: T3, Cyno OPG-Fc; assay: as above
Description: as §1

Human OPG-Fc [7] = target: T1, Human OPG-Fc; assay: as above
Description: as §1

Human OPG-Fc [8] = target: T1, Human OPG-Fc; assay: HTRF competition, purified antibody titrated from 120 nM against 20 nM OPG and 55.6 nM RANKL-647; remaining specific binding of RANKL
Human OPG-Fc [9] = target: T1, Human OPG-Fc; assay: HTRF competition, purified antibody titrated from 120 nM against 4 nM OPG-Fc and 16 nM TRAIL-Flag; inhibition of TRAIL binding
Cyno OPG-Fc [10] = target: T3, Cyno OPG-Fc; assay: SPR (ProteOn XPR36); CNROR = cannot resolve off rate, no KD given
Human OPG-Fc [11] = target: T1, Human OPG-Fc; assay: cell-based or functional assay
Cyno OPG-Fc [12] = target: T3, Cyno OPG-Fc; assay: SPR (ProteOn XPR36), antibody captured on anti-mouse IgG, OPG-Fc as analyte; CNROR = cannot resolve off rate, no KD given

T1 sequence (chain, as listed by the source limits assumed): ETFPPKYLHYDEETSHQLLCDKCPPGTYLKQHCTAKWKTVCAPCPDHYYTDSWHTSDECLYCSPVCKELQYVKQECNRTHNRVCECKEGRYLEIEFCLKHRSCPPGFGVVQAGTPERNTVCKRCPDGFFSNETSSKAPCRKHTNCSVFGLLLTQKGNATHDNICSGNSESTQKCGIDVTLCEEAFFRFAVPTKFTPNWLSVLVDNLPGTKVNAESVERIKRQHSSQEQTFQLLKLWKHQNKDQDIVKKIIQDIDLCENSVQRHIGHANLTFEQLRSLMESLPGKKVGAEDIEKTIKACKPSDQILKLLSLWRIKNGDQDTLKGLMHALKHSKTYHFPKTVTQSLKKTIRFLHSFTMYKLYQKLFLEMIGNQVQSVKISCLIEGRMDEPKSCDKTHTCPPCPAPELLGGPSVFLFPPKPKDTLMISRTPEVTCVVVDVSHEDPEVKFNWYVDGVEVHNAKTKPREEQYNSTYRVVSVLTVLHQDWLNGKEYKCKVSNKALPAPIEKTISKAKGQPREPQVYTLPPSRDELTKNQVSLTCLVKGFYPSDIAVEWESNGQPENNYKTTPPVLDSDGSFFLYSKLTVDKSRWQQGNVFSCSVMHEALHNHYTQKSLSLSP

binding result (Cyno OPG-Fc [12]): binds | % Max Specific binding (Human OPG-Fc [1]): 55.8% | % Max Specific binding (Human OPG-Fc [8]): 86.6% | Kd (Rat OPG-Fc [2]): 0.36 nM | Kd (Human OPG-Fc [4]): 0.18 nM | Kd (Rat OPG-Fc [5]): 0.36 nM | Kd (Human OPG-Fc [7]): 0.18 nM
B3: Ky5 (15H06) (antibody, V domains shown)
VH: not shown
VL: AIQMTQSPSSVSASVGDRVTITCRASQGISSWLAWYQQKPGKAPKLLIYAASSLHSGVPSRFSGSGSETDFTLTISSLHPEDFATYYCQQSNSFPLTFGGGTKVEIK
notes: Campaign KM058; In SPR and HTRF it was tested as hybridoma material (human variable regions, mouse constant regions; captured on anti-mouse IgG)

% Max Specific binding (Human OPG-Fc [1]): 50.7% | % Max Specific binding (Human OPG-Fc [8]): 65.1% | Kd (Rat OPG-Fc [2]): 1.3 nM | Kd (Cyno OPG-Fc [3]): 0.17 nM | Kd (Human OPG-Fc [4]): 0.18 nM | Kd (Rat OPG-Fc [5]): 1.3 nM | Kd (Cyno OPG-Fc [6]): 0.166 nM | Kd (Human OPG-Fc [7]): 0.18 nM
B5: Ky4 (16G05) (antibody, V domains shown)
VH: EVQLVESGGGLVQPGRSLRLSCAVSGFTFDDYAMHWVRQPPGKGLEWVSGISWNSGSIDYADSVKGRFTISRDNAKNSLYLQMNSLRAEDTALYYCAKDYYYDSSAYVLFDYWGQGTLVTVSS
VL: DIQMTQSPSSLSASVGDRVIITCRASQSISSYLNWYQQKPGKAPELLIYGASSLQSGVPSRFSGSGSGTDFTLTISSLQPEDFATYYCQQSFSTPLTFGGGTKVEIK
notes: as for B3

The remaining lines, values behind:

B1: Ky1 (6D07) (antibody, V domains shown)
VH: QVQLVQSGAEVKKPGASVKVSCKASGYTFTSYGISWVRQAPGQGLEWMGWISAYNGNTNYKQKLQGRVTMTTDTSTSTAYMELRSLRSDDTAVYYCARGGSGRYYPWGQGTLVTVSS
VL: DIQMTQSPSSLSASVGDRVTITCRASQGIRNDLGWYQQIPGKAPKRLIYDASSLQSGVPSRFSGSGSGTEFTLTISSLQPEDFATYYCLQHNSYPFTFGPGTKVDIK
notes: Campaign KM059; In SPR and HTRF it was tested as hybridoma material (human variable regions, mouse constant regions; captured on anti-mouse IgG)
% Max Specific binding (Human OPG-Fc [1]): 4.8% | Kd (Rat OPG-Fc [2]): 1.35 nM | Kd (Cyno OPG-Fc [3]): 14.8 nM | Kd (Human OPG-Fc [4]): 0.17 nM | Kd (Rat OPG-Fc [5]): 1.35 nM | Kd (Cyno OPG-Fc [6]): 14.8 nM | Kd (Human OPG-Fc [7]): 0.17 nM

B2: Ky3 (15F11) (antibody, V domains shown)
VH: EVQLVESGGGLVQPGGSLRLSCAASGFTFGRYDMNWVRQTTGKGLEWVSAIGTAGDTYYPGSVKGRFTISRENAKNSLYLQMNSLRPGDTAVYYCARARPYYYDSGSYYHAPFDYWGQGTLVTVSS
VL: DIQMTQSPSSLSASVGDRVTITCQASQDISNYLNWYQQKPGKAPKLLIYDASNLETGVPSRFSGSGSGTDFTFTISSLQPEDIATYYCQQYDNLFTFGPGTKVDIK
notes: as for B3
% Max Specific binding (Human OPG-Fc [8]): 27.1% | Kd (Rat OPG-Fc [2]): 0.12 nM | IC50 (Human OPG-Fc [9]): 1.4 nM | binding result (Cyno OPG-Fc [10]): binds | EC50 (read off the curve) (Human OPG-Fc [11]): ~10 nM | Kd (Rat OPG-Fc [5]): 0.12 nM

B4: Ky2 (8C10) (antibody, V domains shown)
VH: EVQLVESGGGLVQPGRSLRLSCAASGFTFDDYAMHWVRQGPGKGLEWVSSISWNSGRIDYADSVKGRFTISRDNAKNSLYLQMNRLRAEDTALYYCAKDGFYDILTGSFFDYWGQGILVTVSS
VL: DIQMTQSPSSLSASVGDRVTITCRASQSISSYLNWYHQEPGKAPNLLIYGASSLQSGVPSRFSGSGSGTDFTLTISSLQPEDFATYYCQQSYSAPPEWTFGQGTKVEIK
notes: as for B1
% Max Specific binding (Human OPG-Fc [1]): 20.1% | Kd (Rat OPG-Fc [2]): 7.39 nM | Kd (Human OPG-Fc [4]): 0.1 nM | binding result (Cyno OPG-Fc [10]): binds | Kd (Rat OPG-Fc [5]): 7.39 nM | Kd (Human OPG-Fc [7]): 0.1 nM
